The results in this text go back to patent US20250042957A1 (Molecular Partners, published 2025).

B2: VEGF165 (ligand, UniProt P15692-4 27-191, looked up)
chain: APMAEGGGQNHHEVVKFMDVYQRSYCHPIETLVDIFQEYPDEIEYIFKPSCVPLMRCGGCCNDEGLECVPTEESNITMQIMRIKPHQGQHIGEMSFLQHNKCECRPKKDRARQENPCGPCSERRKHLFVQDPQTCKCSCKNTDSRCKARQLELNERTCRCDKPRR
modifications: biotinylated in the ELISA of Example 4 (site not stated)
notes: also called biotinylated VEGF165; soluble VEGF

For assay [1], the target named is T1, scCD3εγ.
T1 chain 1: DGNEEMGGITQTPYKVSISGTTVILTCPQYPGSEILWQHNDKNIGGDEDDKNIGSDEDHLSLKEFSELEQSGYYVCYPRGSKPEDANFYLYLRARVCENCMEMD
T1 chain 2: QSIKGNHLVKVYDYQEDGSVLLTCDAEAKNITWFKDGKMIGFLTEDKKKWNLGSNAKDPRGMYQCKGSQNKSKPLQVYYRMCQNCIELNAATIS
Nature of the assay: ELISA on scCD3εγ, DARPin titrated. For orientation: ELISA stands for enzyme-linked immunosorbent assay.

Assay [2] deals with T1, scCD3εγ. In words: SPR, bio-scCD3εγ coated on NAD chip, DARPin 333.33-4.11 nM. (In general: Surface plasmon resonance follows binding to a sensor surface in real time, without labels.)
Assay [3] deals with T1, scCD3εγ. Nature of the assay: ELISA: plate-bound biotinylated scCD3εγ, His-tagged α-CD3 mono-DARPin titrated, no VEGF.
The target of assay [4] is T1, scCD3εγ. The assay is described as above.
The target of assay [5] is T1, scCD3εγ. The assay is described as above.
The target in assay [6] is T1, scCD3εγ. Described as above.
Assay [7] addresses T1, scCD3εγ. The description is as above.
In assay [8] the target is T1, scCD3εγ. The assay is described as above.
The target of assay [9] is T1, scCD3εγ. The description is as above.
For assay [10], the target named is T1, scCD3εγ. Nature of the assay: ELISA: plate-bound biotinylated scCD3εγ, His-tagged α-CD3 mono-DARPin titrated in presence of 100 nM soluble VEGF.
Description: (§1) ELISA assays offer an easy and qualitative way to determine the binding of the Switchdrug DARPin constructs to a target. The difference in binding of Switchdrug DARPins to scCD3εγ in presence and absence of VEGF was assessed. […] Said Switchdrug DARPins were mixed with a constant concentration of VEGF (100 nM) and tested for binding to scCD3εγ. […] The difference in EC50 of a construct in presence and absence of VEGF can be referred to as the “activation window”.
(§2) Switchdrug DARPins that were mixed with VEGF were titrated and pre-incubated for 1 day with VEGF in order to establish the thermodynamic equilibrium. These samples were loaded on the ELISA plate, incubated and washed, before the bound Switchdrug DARPins were detected as described above.
The target of assay [11] is T1, scCD3εγ. The assay is described as above.
Description: as §1, §2
The target in a further assay is T2, Switchdrug DARPin 15-3.
T2 construct: also called 2-in-1 DARPin15 in Format 3
T2 chain: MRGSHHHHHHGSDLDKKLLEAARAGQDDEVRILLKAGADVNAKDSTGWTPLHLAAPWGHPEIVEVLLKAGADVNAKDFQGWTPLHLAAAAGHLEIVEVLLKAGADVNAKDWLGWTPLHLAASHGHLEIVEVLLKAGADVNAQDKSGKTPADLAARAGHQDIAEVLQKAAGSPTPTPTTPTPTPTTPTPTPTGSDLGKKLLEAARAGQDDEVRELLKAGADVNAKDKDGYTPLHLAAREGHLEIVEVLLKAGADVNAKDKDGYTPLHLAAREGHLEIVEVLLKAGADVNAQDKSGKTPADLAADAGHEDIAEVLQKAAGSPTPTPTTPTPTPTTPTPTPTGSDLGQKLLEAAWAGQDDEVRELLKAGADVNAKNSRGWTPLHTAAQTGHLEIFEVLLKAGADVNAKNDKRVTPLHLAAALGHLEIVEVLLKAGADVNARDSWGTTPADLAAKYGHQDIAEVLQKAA
Nature of the assay: HTRF: 20 nM Switchdrug DARPin with titrated soluble VEGF; read-out is the construct's binding to 1 nM biotinylated scCD3εγ (release of the α-CD3 binder). On the technique in general: In TR-FRET formats the signal depends on donor and acceptor labels being close together.

The target in assay [12] is T3, Switchdrug DARPin 17-3.
T3 construct: also called 2-in-1 DARPin17 in Format 3
T3 chain: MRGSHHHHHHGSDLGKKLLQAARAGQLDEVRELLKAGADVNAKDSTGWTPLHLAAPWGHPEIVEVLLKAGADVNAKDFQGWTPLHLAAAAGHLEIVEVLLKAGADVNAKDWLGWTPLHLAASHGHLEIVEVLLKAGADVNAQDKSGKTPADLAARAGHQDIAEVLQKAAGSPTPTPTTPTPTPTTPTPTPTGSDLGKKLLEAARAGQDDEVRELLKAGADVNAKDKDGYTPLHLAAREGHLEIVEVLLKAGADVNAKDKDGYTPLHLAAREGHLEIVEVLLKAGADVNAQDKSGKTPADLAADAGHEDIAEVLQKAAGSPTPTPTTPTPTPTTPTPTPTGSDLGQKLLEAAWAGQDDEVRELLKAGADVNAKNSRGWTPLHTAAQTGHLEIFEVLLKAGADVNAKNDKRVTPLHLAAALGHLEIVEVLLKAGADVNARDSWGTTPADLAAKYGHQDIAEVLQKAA
The description is as above.
Description: (§3) Said Switchdrug DARPins (20 nM final concentration) were mixed with 1 nM (final concentration) scCD3εγ, 1:200 (final concentration) of anti-FLAG-d2 HTRF antibody-FRET acceptor conjugate (Cisbio) and 1:200 (final concentration) of anti-strep-Tb antibody FRET donor conjugate (Cisbio, France). […] The mix was added to a well of a 384-well plate and incubated for 90 minutes.

Assay [13] addresses T4, Switchdrug DARPin 18-3.
T4 construct: also called 2-in-1 DARPin18 in Format 3
T4 chain: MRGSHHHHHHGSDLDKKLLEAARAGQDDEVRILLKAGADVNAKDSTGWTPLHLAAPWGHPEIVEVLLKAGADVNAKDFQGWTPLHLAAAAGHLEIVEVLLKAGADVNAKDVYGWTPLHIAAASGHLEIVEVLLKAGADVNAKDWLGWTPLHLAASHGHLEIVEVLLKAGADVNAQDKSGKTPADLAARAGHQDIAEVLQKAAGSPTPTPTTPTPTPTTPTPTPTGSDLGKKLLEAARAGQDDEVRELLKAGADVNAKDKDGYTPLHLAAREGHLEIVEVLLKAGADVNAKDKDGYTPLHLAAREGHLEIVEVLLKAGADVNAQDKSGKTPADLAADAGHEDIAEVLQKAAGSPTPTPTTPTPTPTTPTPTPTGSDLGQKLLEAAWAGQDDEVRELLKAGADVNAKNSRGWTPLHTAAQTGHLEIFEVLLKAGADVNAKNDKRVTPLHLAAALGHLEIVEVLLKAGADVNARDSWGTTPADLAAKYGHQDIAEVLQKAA
The description is as above.
Description: as §3

The next assay addresses T5, Switchdrug DARPin 17-1.
T5 construct: also called 2-in-1 DARPin17 in Format 1
T5 chain: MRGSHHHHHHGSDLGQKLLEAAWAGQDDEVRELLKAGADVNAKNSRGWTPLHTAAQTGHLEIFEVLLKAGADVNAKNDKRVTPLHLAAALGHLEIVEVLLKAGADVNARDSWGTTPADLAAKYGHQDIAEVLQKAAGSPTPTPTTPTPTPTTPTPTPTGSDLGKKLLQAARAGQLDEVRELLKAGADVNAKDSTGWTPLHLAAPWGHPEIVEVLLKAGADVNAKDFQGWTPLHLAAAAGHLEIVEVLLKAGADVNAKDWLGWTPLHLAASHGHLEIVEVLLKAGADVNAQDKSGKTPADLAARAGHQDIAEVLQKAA
Nature of the assay: ELISA: 10 nM Switchdrug DARPin 17-1 pre-incubated with titrated soluble VEGF; read-out is the construct bound to plate-bound biotinylated scCD3εγ (release of the α-CD3 binder).

Assay [14] deals with T3, Switchdrug DARPin 17-3. Nature of the assay: ELISA: 10 nM Switchdrug DARPin 17-3 pre-incubated with titrated soluble VEGF; read-out is the construct bound to plate-bound biotinylated scCD3εγ (release of the α-CD3 binder).
Description: as §2
The target in assay [15] is T4, Switchdrug DARPin 18-3. In words: ELISA: 100 nM Switchdrug DARPin 18-3 pre-incubated with titrated soluble VEGF; read-out is the construct bound to plate-bound biotinylated scCD3εγ (release of the α-CD3 binder).
Description: as §2
Assay [16] has as its target B2. Nature of the assay: cell-based or functional assay.
The target in assay [17] is T1, scCD3εγ. Nature of the assay: ELISA, biotinylated scCD3εγ on neutravidin plate, with against without 100 nM VEGF.
Description: (§4) The difference in binding of Switchdrug DARPins to scCD3εγ in presence and absence of VEGF was assessed. […] Said Switchdrug DARPins were mixed with a constant concentration of VEGF (100 nM) and tested for binding to scCD3εγ. […] The difference in EC50 of a construct in presence and absence of VEGF can be referred to as the “activation window”.
as §2
Assay [18] has as its target T1, scCD3εγ. Nature of the assay: ELISA: plate-bound biotinylated scCD3εγ, His-tagged construct titrated in presence of 100 nM soluble VEGF.
Description: as §4, §2
Assay [19] deals with B2. Nature of the assay: ELISA: plate-bound biotinylated VEGF165, His-tagged construct titrated, no soluble VEGF, anti-His-HRP detection.
Description: (§5) Then a titration of the Switchdrug DARPins was applied, incubated and washed. Detection of bound his-tagged constructs was done by anti-RGS(his)4 mAb HRP conjugate, and detected by TMB substrate.
Assay [20] addresses B2. In words: SPR (ProteOn), VEGF165 immobilized, single-trace 50 nM, 25 C.
The target of assay [21] is B2. In words: ELISA: plate-bound biotinylated VEGF165, His-tagged binder titrated, anti-His-HRP detection.
Description: Binding is detected via an HRP-labeled anti-His antibody.
as §5

Description for Switchdrug DARPin 15-3: as §3
Description for Switchdrug DARPin 17-1: as §2

B1: CD3-specific binding domain (SEQ ID NO: 3) (designed binder)
chain: DLGQKLLEAAWAGQDDEVRELLKAGADVNAKNSRGWTPLHTAAQTGHLEIFEVLLKAGADVNAKNDKRVTPLHLAAALGHLEIVEVLLKAGADVNARDSWGTTPADLAAKYGHQDIAEVLQKAA
modifications: biotinylated when used as immobilized SPR ligand (site not stated)
notes: also called α-CD3 DARPin
By EC50 (read off the curve) is commonly meant the concentration at which the effect is half-maximal. A word on the Kd: it is the free concentration of one partner at which half of the binding sites on the other are occupied at equilibrium, for simple one-to-one binding. A lower Kd goes with higher affinity. With B1, the “EC50 (read off the curve)” value is roughly 3 nM with scCD3εγ [1]; roughly 5 nM with scCD3εγ [3]; roughly 5 nM with scCD3εγ [4]; roughly 3 nM with scCD3εγ [5]; roughly 3 nM in the assay with scCD3εγ [6]; roughly 3 nM with scCD3εγ [7]. Also, the “EC50 (read off the curve)” value with scCD3εγ [8] was roughly 3 nM; with scCD3εγ [9] it was roughly 4 nM; with scCD3εγ [10], roughly 4 nM; with scCD3εγ [11], roughly 4 nM. For the same molecule, binding with scCD3εγ [2] was put at a Kd of 2.03 nM.

Take B2: the 50% effective concentration (EC50 (read off the curve)) with Switchdrug DARPin 15-3 is roughly 30 nM; with Switchdrug DARPin 17-3 [12], roughly 30 nM; in the assay with Switchdrug DARPin 18-3 [13] it was roughly 70 nM; with Switchdrug DARPin 17-1, roughly 4 nM; with Switchdrug DARPin 17-3 [14] it was roughly 7 nM; with Switchdrug DARPin 18-3 [15], roughly 40 nM.

B3: Switchdrug DARPin 17-B (designed binder)
chain: MRGSHHHHHHGSDLGKKLLQAARAGQLDEVRELLKAGADVNAKDSTGWTPLHLAAPWGHPEIVEVLLKAGADVNAKDFQGWTPLHLAAAAGHLEIVEVLLKAGADVNAKDWLGWTPLHLAASHGHLEIVEVLLKAGADVNAQDKSGKTPADLAARAGHQDIAEVLQKAAGSPTPTPTTPTPTPTTPTPTPTGSDLGKKLLQAARAGQLDEVRELLKAGADVNAKDQYGRTPLHLAAIKGHLEIVEVLLKAGADVNAKDSLGYTPLHLAAVEGPLEIVEVLLKAGADVNAKDAYGQTPLHIAAAWGHLEIVEVLLKAVADVNAQDKSGKTPADLAARAGHQDIAEVLQKAAGSPTPTPTTPTPTPTTPTPTPTGSDLGQKLLEAAWAGQDDEVRELLKAGADVNAKNSRGWTPLHTAAQTGHLEIFEVLLKAGADVNAKNDKRVTPLHLAAALGHLEIVEVLLKAGADVNARDSWGTTPADLAAKYGHQDIAEVLQKAA
notes: also called 2-in-1 DARPin17 in Format B
Consider B3, for which the “T-cell activation (CD69+ cells of CD8+ T cells, Molm-13 target cells): activation window” value with VEGF165 [16] was found to be 75 fold. For the same molecule, the “activation window (difference in EC50 in presence and absence of VEGF)” value with scCD3εγ [17] was roughly 178 fold. Besides, the figures for the concentration giving a half-maximal response (EC50 (read off the curve)) with scCD3εγ [18] and in the assay with VEGF165 [19] were roughly 2 nM and roughly 30 nM, respectively.

B4: VEGF-binder (SEQ ID NO: 1) (designed binder)
chain: DLDKKLLEAARAGQDDEVRILLKAGADVNAKDSTGWTPLHLAAPWGHPEIVEVLLKAGADVNAKDFQGWTPLHLAAAAGHLEIVEVLLKAGADVNAQDKSGKTPADLAADAGHEDIAEVLQKAA
notes: said to be disclosed in WO 2016/156596
The term koff denotes a measure of how fast the partners let go of each other. Lower therefore signals a long-lived complex. By kon is commonly meant the rate constant with which the complex forms. A high value points to faster complex formation. In the assay with VEGF165 [20], B4 came in with a Kd of 0.21 nM, a koff of 0.00014 s⁻¹ and an on-rate (kon) of 646000 M⁻¹ s⁻¹. Besides, in the assay with VEGF165 [21], the “EC50 (read off the curve)” value is roughly 0.5 nM.
